According to patent US20250043302A1, “MUTATED HYDROXYPHENYLPYRUVATE DIOXYGENASE POLYPEPTIDE, AND CODING GENE AND USE THEREOF” (BEIJING DABEINONG BIOTECHNOLOGY CO., LTD., priority 2021, published 2025):
Residue numbers refer to the chain shown, from its start. In names and notes the source's numbering stands.

B1: GsHPPD-02: nucleotide sequence encoding wild-type Gossypium hirsutum HPPD; vector DBN11738 (nucleic acid)
DNA: ATGGTTCAAACAAATCAATCTGGTTCTGGGAATGATTTCAAGCTGGTTGGTTTCTCAAATTTTGTGCGTAGCAATCCCAAATCAGACCGCTTCACGGTCAAGAGATTCCACCACATTGAATTTTGGTGCACTGATGCCACTAATGTGGCGAGGAGGTTTTCATGGGGTTTAGGGATGCAGTTCGTCGCCAAGAGTGACCTCTCCACAGGAAATTTGACGCATGCAAGCTACCTGCTGCGGAGCCGCGACTTGAATTTCCTGTTTACAGCACCATATTCACCCAGTATTGCAGTTGCTCAAAACCTTTCGCCACAAAGCACTGCTTCCATACCTTCATTTGATCACTCGCTTTGTCGGTCCTTTGCTGCAACACATGGACTTGGCGTCAGAGCAATTGCCATCGAGGTGGACGACGCCGAAACTGCCTTCACCACGAGCGTGACACATGGCGCGCTCCCTTTTTGTCCACCAACACCACTAGGAGATGTGGCTACAATTGCTGAAGTTAAATTATATGGTGATGTTGTGCTCAGATATGTTTCTTACACCACAACCATCAACTCCGACCATGATTTTCTGCCTGGTTTTGAGAAGATTGAAGATACTCTATCGTATCCTTTGGATTATGGCCTGCGTCGGCTCGATCATGCTGTTGGCAACGTACCTGAATTAGGTCCTGCTGTATCTTATGTGAAATCTTTTACTGGGTTCCATGAGTTTGCAGAGTTCACCGCTGAGGATGTAGGAACAAGTGAATCTGGGCTGAACTCAGTTGTTTTGGCCAACAATGAGGAAATGGTCCTCTTACCAATGAACGAGCCGGTGTTCGGCACTAAGCGCAAATCTCAAATACAGACCTACTTGGAGCACAATGAAGGAGCTGGTGTGCAGCACCTCGCCCTCGTCTCGGAGGACATCTTCAAAACTTTAAGGGAGATGAGGAAACGATCCTTTGTGGGAGGATTTGAATTCATGCCTTCTCCGCCGCCGACATACTACAAGAAGCTCAAGCAGCGCGCGGGGGACATTTTGTCTGATGAGCAGATCAAGGAGTGTGAAGAGCTTGGGATTCTTGTTGATAGAGATGATCAAGGAACGCTTCTGCAGATATTTACCAAGCCCGTCGGCGACCGGCCTACTATATTCATTGAGATCATCCAGAGAATTGGTTGCATGGTGAAGGATGAAGAAGGGAAACAGTACCAGAAGGGCGGCTGCGGCGGGTTTGGAAAAGGAAACTTCAGTGAGCTGTTTAAAAGTATAGAGGAGTATGAAAAGAGCTTGGAAGCAAAACAATCACAAAATCCATGA
modifications: GsHPPD-02 Nucleotide Sequence
notes: vector DBN11738
B2: GsHPPDm-F372A-F383W-02: nucleotide sequence encoding Gossypium hirsutum HPPD with F372A+F383W; vector DBN11741 (nucleic acid)
DNA: B1 DNA with T1111G, T1112C, T1113C, T1145G, C1146G
modifications: GsHPPDm-F372A-F383W-02 Nucleotide Sequence
notes: vector DBN11741

What was measured:
Assay type in all cases: in vivo
[1] = system: Arabidopsis thaliana T1 plants; assay: Topramezone tolerance of transgenic Arabidopsis thaliana T1 plants (spray, bleached leaf area grade, damage score); details: 7 DAT, Table 4; for Classification and statistics of the grade of pesticide damage: Grade 0 / Classification and statistics of the grade of pesticide damage: Grade 1 / Classification and statistics of the grade of pesticide damage: Grade 2 / Classification and statistics of the grade of pesticide damage: Grade 3: number of plants; for Scores: pesticide damage score 0-100
In short: (§1)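 T1 transformants selected by glufosinate; 18-day-old plants, with empty-vector and wild-type controls, sprayed with topramezone (25–200 g ai/ha), isoxaflutole (35–280 g ai/ha) or mesotrione (52.5–420 g ai/ha), water as 0×. Bleached leaf area fraction scored at 7 DAT as grades 0–3.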

[2] = system: Arabidopsis thaliana T1 plants; assay: Isoxaflutole tolerance of transgenic Arabidopsis thaliana T1 plants (spray, bleached leaf area grade, damage score); parameters: Scores (pesticide damage): scale not given here; details: spray, Arabidopsis thaliana T1 plants; for Classification and statistics of the grade of pesticide damage: Grade 0 (number of plants) / Classification and statistics of the grade of pesticide damage: Grade 1 (number of plants) / Classification and statistics of the grade of pesticide damage: Grade 2 (number of plants) / Classification and statistics of the grade of pesticide damage: Grade 3 (number of plants): 16 plants
In short: as §1

[3] = system: Arabidopsis thaliana T1 plants; assay: Mesotrione tolerance of transgenic Arabidopsis thaliana T1 plants (spray, bleached leaf area grade, damage score); parameters: Scores: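 damage score 0-100 computed as Σ(N×S)/(T×M)×100 over grades 0-3 with higher meaning more damage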; details: Arabidopsis thaliana T1 plants; for Grade 0 (classification and statistics of the grade of pesticide damage; number of plants) / Grade 1 (classification and statistics of the grade of pesticide damage; number of plants) / Grade 2 (classification and statistics of the grade of pesticide damage; number of plants) / Grade 3 (classification and statistics of the grade of pesticide damage; number of plants): 16 plants
In short: as §1

[4] = isoxaflutole 35 g ai/ha (0.5x field concentration)
[5] = isoxaflutole 70 g ai/ha (1x field concentration)

Molecule	Classification and statistics of the grade of pesticide damage: Grade 0 ([1]; topramezone 25 g ai/ha (1×))	Classification and statistics of the grade of pesticide damage: Grade 1 ([1]; topramezone 25 g ai/ha (1×))	Classification and statistics of the grade of pesticide damage: Grade 2 ([1]; topramezone 25 g ai/ha (1×))	Classification and statistics of the grade of pesticide damage: Grade 3 ([1]; topramezone 25 g ai/ha (1×))	Classification and statistics of the grade of pesticide damage: Grade 0 ([1]; topramezone 100 g ai/ha (4×))	Classification and statistics of the grade of pesticide damage: Grade 1 ([1]; topramezone 100 g ai/ha (4×))	Classification and statistics of the grade of pesticide damage: Grade 2 ([1]; topramezone 100 g ai/ha (4×))	Classification and statistics of the grade of pesticide damage: Grade 3 ([1]; topramezone 100 g ai/ha (4×))	Scores ([1]; topramezone 25 g ai/ha (1×))	Scores ([1]; topramezone 100 g ai/ha (4×))	Resistance evaluation ([1]; topramezone 25 g ai/ha (1×))	Resistance evaluation ([1]; topramezone 100 g ai/ha (4×))	Resistance evaluation [2, 4]	Scores (pesticide damage) [2, 4]	Classification and statistics of the grade of pesticide damage: Grade 0 (number of plants) [2, 4]	Classification and statistics of the grade of pesticide damage: Grade 1 (number of plants) [2, 4]	Classification and statistics of the grade of pesticide damage: Grade 2 (number of plants) [2, 4]	Classification and statistics of the grade of pesticide damage: Grade 3 (number of plants) [2, 4]	Resistance evaluation [2, 5]	Scores (pesticide damage) [2, 5]	further results
B1	0	0	0	16	0	0	0	16	100	100	non-resistant (non-resistant plants (scores 68-100))	non-resistant (non-resistant plants (scores 68-100))	Non-resistant	100	0	0	0	16	Non-resistant	100	Classification and statistics of the grade of pesticide damage: Grade 0 (number of plants) [2, 5]: 0; Classification and statistics of the grade of pesticide damage: Grade 1 (number of plants) [2, 5]: 0; Classification and statistics of the grade of pesticide damage: Grade 2 (number of plants) [2, 5]: 0; Classification and statistics of the grade of pesticide damage: Grade 3 (number of plants) [2, 5]: 16; Resistance evaluation ([3]; mesotrione 52.5 g ai/ha): Non-resistant; Scores ([3]; mesotrione 52.5 g ai/ha): 100; Grade 0 (classification and statistics of the grade of pesticide damage; number of plants) ([3]; mesotrione 52.5 g ai/ha): 0; Grade 1 (classification and statistics of the grade of pesticide damage; number of plants) ([3]; mesotrione 52.5 g ai/ha): 0; Grade 2 (classification and statistics of the grade of pesticide damage; number of plants) ([3]; mesotrione 52.5 g ai/ha): 0; Grade 3 (classification and statistics of the grade of pesticide damage; number of plants) ([3]; mesotrione 52.5 g ai/ha): 16; Resistance evaluation ([3]; mesotrione 105 g ai/ha): Non-resistant; Scores ([3]; mesotrione 105 g ai/ha): 100; Grade 0 (classification and statistics of the grade of pesticide damage; number of plants) ([3]; mesotrione 105 g ai/ha): 0; Grade 1 (classification and statistics of the grade of pesticide damage; number of plants) ([3]; mesotrione 105 g ai/ha): 0; Grade 2 (classification and statistics of the grade of pesticide damage; number of plants) ([3]; mesotrione 105 g ai/ha): 0; Grade 3 (classification and statistics of the grade of pesticide damage; number of plants) ([3]; mesotrione 105 g ai/ha): 16
B2	16	0	0	0	5	7	2	2	0	35	highly	poorly	Highly	15	9	7	0	0	Poorly	48	Classification and statistics of the grade of pesticide damage: Grade 0 (number of plants) [2, 5]: 3; Classification and statistics of the grade of pesticide damage: Grade 1 (number of plants) [2, 5]: 5; Classification and statistics of the grade of pesticide damage: Grade 2 (number of plants) [2, 5]: 6; Classification and statistics of the grade of pesticide damage: Grade 3 (number of plants) [2, 5]: 2; Resistance evaluation ([3]; mesotrione 52.5 g ai/ha): Moderately; Scores ([3]; mesotrione 52.5 g ai/ha): 33; Grade 0 (classification and statistics of the grade of pesticide damage; number of plants) ([3]; mesotrione 52.5 g ai/ha): 3; Grade 1 (classification and statistics of the grade of pesticide damage; number of plants) ([3]; mesotrione 52.5 g ai/ha): 10; Grade 2 (classification and statistics of the grade of pesticide damage; number of plants) ([3]; mesotrione 52.5 g ai/ha): 3; Grade 3 (classification and statistics of the grade of pesticide damage; number of plants) ([3]; mesotrione 52.5 g ai/ha): 0; Resistance evaluation ([3]; mesotrione 105 g ai/ha): Non-resistant; Scores ([3]; mesotrione 105 g ai/ha): 77; Grade 0 (classification and statistics of the grade of pesticide damage; number of plants) ([3]; mesotrione 105 g ai/ha): 0; Grade 1 (classification and statistics of the grade of pesticide damage; number of plants) ([3]; mesotrione 105 g ai/ha): 0; Grade 2 (classification and statistics of the grade of pesticide damage; number of plants) ([3]; mesotrione 105 g ai/ha): 11; Grade 3 (classification and statistics of the grade of pesticide damage; number of plants) ([3]; mesotrione 105 g ai/ha): 5
